Measured values from paper PMC7594083, “Preclinical Evaluation of the GRPR-Targeting Antagonist RM26 Conjugated to the Albumin-Binding Domain for GRPR-Targeting Therapy of Cancer” (Pharmaceutics, 2020).
Like-named read-outs stand apart in the source and are kept apart here.

Assays:
[1] = In vivo targeting specificity in mice bearing PC-3 xenografts; settings: female, BALB/c nu/nu, mouse, iv, total radioactivity, 40 pmol i.v., 72 h pi, 4 mice, SD, read-out: tumor activity uptake, non-blocked
Experimental: The activity content was measured using a 2840 automated gamma counter Wizard^2TM (PerkinElmer, Waltham, MA, USA). Instant thin-layer chromatography (ITLC) results were analyzed using Cyclone® Plus (PerkinElmer). Statistical analyses were performed by unpaired, two-tailed t-tests using GraphPad Prism 8 for Windows (GraphPad Software, San Diego, CA, USA); p values below 0.05 were considered significant.
BALB/c nu/nu female mice were implanted subcutaneously with PC-3 cells in PBS (6.5 × 10^6 cells/mouse) on the hind leg. Tumor size was 0.4 ± 0.2 g at the time of the experiment (2−3 weeks following implantations). A group of four mice was used per data point.
The mice were euthanized at 72 h post injection (pi).

[2] = Biodistribution in mice bearing PC-3 xenografts; format: in vivo, mice (BALB/c nu/nu female); settings: female, BALB/c nu/nu, mouse, in vivo, iv, 40 pmol, total radioactivity
Experimental: (§1) Instant thin-layer chromatography (ITLC) results were analyzed using Cyclone® Plus (PerkinElmer). […] BALB/c nu/nu female mice were implanted subcutaneously with PC-3 cells in PBS (6.5 × 10^6 cells/mouse) on the hind leg. […] A group of four mice was used per data point. […] After euthanization, the organs of interest were collected and weighed, and the radioactivity content was measured on a gamma counter.

PC-3 xenografts = assay: Biodistribution in mice bearing PC-3 xenografts; format: in vivo, mice (BALB/c nu/nu female); settings: mouse, in vivo
Experimental: as §1

GRPR [3] = molecular target: T1, GRPR (Homo sapiens, UniProt P30550); assay: Competitive binding (IC50) assay on PC-3 cells; set-up: host or cells: PC-3 prostate carcinoma cells; settings: vs 1 nM [^111In]In-NOTA-PEG4-RM26, PC-3 cells, 0-10 µM, 4 °C, 5 h, n = 3, SD
T1 sequence (P30550 whole entry): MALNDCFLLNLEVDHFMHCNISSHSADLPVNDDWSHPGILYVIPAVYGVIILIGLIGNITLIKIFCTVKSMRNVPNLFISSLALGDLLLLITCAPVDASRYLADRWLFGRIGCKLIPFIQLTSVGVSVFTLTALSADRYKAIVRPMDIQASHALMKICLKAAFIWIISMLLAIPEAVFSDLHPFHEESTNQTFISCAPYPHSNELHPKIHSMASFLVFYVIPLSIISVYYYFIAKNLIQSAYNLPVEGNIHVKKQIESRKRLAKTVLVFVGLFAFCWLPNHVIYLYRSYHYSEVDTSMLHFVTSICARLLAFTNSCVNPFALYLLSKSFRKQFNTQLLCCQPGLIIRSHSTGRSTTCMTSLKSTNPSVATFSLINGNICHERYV
Experimental: Prostate carcinoma cell line PC-3 (GRPR positive) was purchased from ATCC, Manassas, VA, USA. […] PC-3 cells (5 × 10^5 cells/well) were plated on 12-well plates one day before the competitive binding assays. […] On the day of the experiment, the cells were washed, and 1 nM of [^111In]In-NOTA-PEG4-RM26 was added to each well along with a series of concentrations ranging between 0-10 μM of the competing conjugate. The dishes were incubated at 4 °C for 5 h. The cells were then washed and treated with trypsin-EDTA until cell detachment. The cells were collected, and the radioactivity content was measured using a gamma counter.

[4] = Circular dichroism, secondary structure/helicity; format: physicochemical
Experimental: The secondary structures of ABD035, DOTA-ABD-Cl and DOTA-ABD-RM26 were determined by circular dichroism spectroscopy (Chirascan, Applied Photophysics, Leatherhead, UK). All CD spectra were obtained at 20 °C using a protein concentration of 0.2 mg/mL in 20 mM potassium phosphate buffer with 100 mM KCl pH 7.4. To estimate the percentage of helicity in each construct, the measured ellipticity (θobs) was first converted to the mean residue ellipticity (MRE) using the following formula MRE = θobs/10 × l × C × n, where l is the pathlength in cm, C is the peptide concentration in the molar, and n is the number of residues in each construct. From the mean residue ellipticity at 222 nm, MRE222, the fraction helix, FH, was calculated using the following formula, FH = (MRE222 − [θ]C)/([θ]H − [θ]C). [θ]H and [θ]C are given by [θ]H = 40,000 × (1 − (2.5/n) + 100 × T, and [θ]C = 640 − 45 × T. T is given in °C, here 20, and n is the number of residues in each construct (Scholtz 1991).

[5] = Thermal melting by circular dichroism; format: physicochemical; settings: CD, 0.2 mg/mL in 20 mM potassium phosphate, 100 mM KCl, pH 7.4; estimated (only roughly for DOTA-ABD-RM26)
GRPR [6] = molecular target: T1, GRPR; settings: in vivo; cited from earlier work
GRPR [7] = molecular target: T1, GRPR; settings: cited from earlier work
[8] = cited from earlier work
Excerpt: However, as a consequence of the low amplitude for the melting curve of DOTA-ABD-RM26, the melting temperature can only be roughly estimated for this conjugate.

Compound: CC[C@H](C)[C@H](NC(=O)[C@H](Cc1c[nH]cn1)NC(=O)[C@H](CC(C)C)NC(=O)[C@H](CCCCN)NC(=O)[C@H](CC(C)C)NC(=O)[C@H](C)NC(=O)[C@H](CCC(=O)O)NC(=O)[C@@H](NC(=O)CNC(=O)[C@H](CCC(=O)O)NC(=O)[C@@H](NC(=O)[C@@H](NC(=O)[C@H](CCCCN)NC(=O)[C@H](C)NC(=O)[C@H](CCCCN)NC(=O)[C@H](CC(N)=O)NC(=O)[C@@H](NC(=O)[C@H](CC(C)C)NC(=O)[C@H](CCCNC(=N)N)NC(=O)[C@H](CCCCN)NC(=O)[C@H](Cc1ccc(O)cc1)NC(=O)[C@H](Cc1ccccc1)NC(=O)[C@H](CC(=O)O)NC(=O)[C@H](CO)NC(=O)[C@@H](NC(=O)CNC(=O)[C@H](Cc1ccc(O)cc1)NC(=O)[C@H](CCCCNC(=O)CSCCC(=O)NCCOCCOCCOCCOCCC(=O)N[C@H](Cc1ccccc1)C(=O)N[C@@H](CCC(N)=O)C(=O)N[C@@H](Cc1c[nH]c2ccccc12)C(=O)N[C@@H](C)C(=O)N[C@H](C(=O)NCC(=O)N[C@@H](Cc1c[nH]cn1)C(=O)N[C@@H](CC(C)C)[C@@H](O)CC(=O)N[C@@H](CC(C)C)C(N)=O)C(C)C)NC(=O)[C@H](CC(=O)O)NC(=O)[C@H](CC(C)C)NC(=O)[C@H](CCC(=O)O)NC(=O)[C@H](CCCNC(=N)N)NC(=O)[C@H](CC(N)=O)NC(=O)[C@H](C)NC(=O)[C@H](CC(C)C)NC(=O)[C@@H](NC(=O)[C@H](CCCCN)NC(=O)[C@H](C)NC(=O)[C@H](CCC(=O)O)NC(=O)[C@H](C)NC(=O)[C@H](CC(C)C)NC(=O)CN1CCN(CC(=O)O)CCN(CC(=O)O)CCN(CC(=O)O)CC1)C(C)C)C(C)C)[C@@H](C)CC)[C@@H](C)O)C(C)C)C(C)C)C(=O)N[C@@H](CC(C)C)C(=O)N[C@@H](C)C(=O)N[C@@H](C)C(=O)N[C@@H](CC(C)C)C(=O)N1CCC[C@H]1C(N)=O [[^111In]In-DOTA-ABD-RM26, metal not drawn]
- tissue uptake at 72 h [1]: 10 ± 1 %ID/g
- tissue uptake at 1 h ([2]; activity concentration in blood 1 h pi): 32 ± 4 %ID/g
- tissue uptake at 1 h ([2]; bone uptake 1 h pi): 3.3 ± 0.4 %ID/g
- tissue uptake at 24 h ([2]; bone uptake 24 h pi): 4.4 ± 0.5 %ID/g
- tissue uptake at 1 h ([2]; kidney uptake 1 h pi): 35 ± 6 %ID/g
- tissue uptake at 1 h ([2]; tumor activity uptake 1 h pi): 7 ± 2 %ID/g
- tissue uptake at 24 h ([2]; tumor activity uptake 24 h pi): 11 ± 2 %ID/g
- tissue uptake at 144 h ([2]; tumor activity uptake 144 h pi): 10 ± 1 %ID/g
- activity uptake in other organs at 24 h pi (PC-3 xenografts): activity uptake remained stable in the majority of the other studied organs

Compound: CC[C@H](C)[C@H](NC(=O)[C@H](Cc1c[nH]cn1)NC(=O)[C@H](CC(C)C)NC(=O)[C@H](CCCCN)NC(=O)[C@H](CC(C)C)NC(=O)[C@H](C)NC(=O)[C@H](CCC(=O)O)NC(=O)[C@@H](NC(=O)CNC(=O)[C@H](CCC(=O)O)NC(=O)[C@@H](NC(=O)[C@@H](NC(=O)[C@H](CCCCN)NC(=O)[C@H](C)NC(=O)[C@H](CCCCN)NC(=O)[C@H](CC(N)=O)NC(=O)[C@@H](NC(=O)[C@H](CC(C)C)NC(=O)[C@H](CCCNC(=N)N)NC(=O)[C@H](CCCCN)NC(=O)[C@H](Cc1ccc(O)cc1)NC(=O)[C@H](Cc1ccccc1)NC(=O)[C@H](CC(=O)O)NC(=O)[C@H](CO)NC(=O)[C@@H](NC(=O)CNC(=O)[C@H](Cc1ccc(O)cc1)NC(=O)[C@H](CCCCNC(=O)CSCCC(=O)NCCOCCOCCOCCOCCC(=O)N[C@H](Cc1ccccc1)C(=O)N[C@@H](CCC(N)=O)C(=O)N[C@@H](Cc1c[nH]c2ccccc12)C(=O)N[C@@H](C)C(=O)N[C@H](C(=O)NCC(=O)N[C@@H](Cc1c[nH]cn1)C(=O)N[C@@H](CC(C)C)[C@@H](O)CC(=O)N[C@@H](CC(C)C)C(N)=O)C(C)C)NC(=O)[C@H](CC(=O)O)NC(=O)[C@H](CC(C)C)NC(=O)[C@H](CCC(=O)O)NC(=O)[C@H](CCCNC(=N)N)NC(=O)[C@H](CC(N)=O)NC(=O)[C@H](C)NC(=O)[C@H](CC(C)C)NC(=O)[C@@H](NC(=O)[C@H](CCCCN)NC(=O)[C@H](C)NC(=O)[C@H](CCC(=O)O)NC(=O)[C@H](C)NC(=O)[C@H](CC(C)C)NC(=O)CN1CCN(CC(=O)O)CCN(CC(=O)O)CCN(CC(=O)O)CC1)C(C)C)C(C)C)[C@@H](C)CC)[C@@H](C)O)C(C)C)C(C)C)C(=O)N[C@@H](CC(C)C)C(=O)N[C@@H](C)C(=O)N[C@@H](C)C(=O)N[C@@H](CC(C)C)C(=O)N1CCC[C@H]1C(N)=O [^natIn-DOTA-ABD-RM26, metal not drawn]
- IC50 (GRPR [3]; 10-fold molar excess of HSA, read-out: half-maximal inhibitory concentration (IC50) in the presence of HSA): 49 ± 5 nM
- IC50 (GRPR [3]; without HSA, read-out: half-maximal inhibitory concentration (IC50)): 30 ± 3 nM

Compound: CC[C@H](C)[C@H](NC(=O)[C@H](Cc1c[nH]cn1)NC(=O)[C@H](CC(C)C)NC(=O)[C@H](CCCCN)NC(=O)[C@H](CC(C)C)NC(=O)[C@H](C)NC(=O)[C@H](CCC(=O)O)NC(=O)[C@@H](NC(=O)CNC(=O)[C@H](CCC(=O)O)NC(=O)[C@@H](NC(=O)[C@@H](NC(=O)[C@H](CCCCN)NC(=O)[C@H](C)NC(=O)[C@H](CCCCN)NC(=O)[C@H](CC(N)=O)NC(=O)[C@@H](NC(=O)[C@H](CC(C)C)NC(=O)[C@H](CCCNC(=N)N)NC(=O)[C@H](CCCCN)NC(=O)[C@H](Cc1ccc(O)cc1)NC(=O)[C@H](Cc1ccccc1)NC(=O)[C@H](CC(=O)O)NC(=O)[C@H](CO)NC(=O)[C@@H](NC(=O)CNC(=O)[C@H](Cc1ccc(O)cc1)NC(=O)[C@H](CCCCNC(=O)CCl)NC(=O)[C@H](CC(=O)O)NC(=O)[C@H](CC(C)C)NC(=O)[C@H](CCC(=O)O)NC(=O)[C@H](CCCNC(=N)N)NC(=O)[C@H](CC(N)=O)NC(=O)[C@H](C)NC(=O)[C@H](CC(C)C)NC(=O)[C@@H](NC(=O)[C@H](CCCCN)NC(=O)[C@H](C)NC(=O)[C@H](CCC(=O)O)NC(=O)[C@H](C)NC(=O)[C@H](CC(C)C)NC(=O)CN1CCN(CC(=O)O)CCN(CC(=O)O)CCN(CC(=O)O)CC1)C(C)C)C(C)C)[C@@H](C)CC)[C@@H](C)O)C(C)C)C(C)C)C(=O)N[C@@H](CC(C)C)C(=O)N[C@@H](C)C(=O)N[C@@H](C)C(=O)N[C@@H](CC(C)C)C(=O)N1CCC[C@H]1C(N)=O [DOTA-ABD-Cl]
- CD spectrum pattern ([4]; 20 °C, 0.2 mg/mL, 20 mM potassium phosphate with 100 mM KCl pH 7.4): characteristic alpha-helical pattern
- helicity ([4]; from MRE222, 20 °C, 0.2 mg/mL, 20 mM potassium phosphate with 100 mM KCl pH 7.4, helix-coil theory): approximately 60%
- residues in helical conformation ([4]; from MRE222, 20 °C, pH 7.4, out of 49 (ABD035), 46 (DOTA-ABD-Cl), 56 (ABD-RM26) residues): 27 residues
- melting temperature (Tm) [5]: 50 °C

Compound: Mercaptopropionyl-[PEG4]-D-Phe-Gln-Trp-Ala-Val-Gly-His-Sta-Leu-NH2 [RM26]
- renal reabsorption (GRPR [6]): low renal reabsorption
- pharmacokinetics (GRPR [7]): favorable pharmacokinetics

Compound: bombesin
- secondary structure upon interaction with lipids and membranes [8]: form alpha-helical structures
